Source: the supplement of paper PMC7877785
± gives the uncertainty stated by the source.

Test: self-splicing fitness, log relative to wild type (ln ratio); higher = more splicing; Tetrahymena group I intron in knt gene, E. coli kanamycin selection, DiMSum; sequences stand for … in CUCUCU…GGAGGGAAAAGUUAUCAGGCAUGCACCUGGUAGCUAGUCUUUAAACCAAUAGAUUGCAUCGGUUUAAAAGGCAAGACCGUCAAAUUGCGGGAAAGGGGUCAACAGCCGUUCAGUACCAAGUCUCAGGGGAAACUUUGAGAUGGCCUUGCAAAGGGUAUGGUAAUAAGCUGACGGACAUGGUCCUAACCACGCAGCCAAGUCCUAAGUCAACAGAUCUUCUGUUGAUAUGGAUGCAGUUCACAGACUAAAUGUCGGUCGGGGAAGAUGUAUUCUUCUCAUAAGAUAUAGUCGGACCUCUCCUUAAUGGGAGCUAGCGGAUGAAGUGAUGCAACACUGGAGCCGCUGGGAACUAAUUUGUAUGCGAAAGUAUAUUGAUUAGUUUUGGAGUACUCGUGGUCG
In short: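 A randomised library covering all eight P1ex-region intron nucleotides was built with the intron in the knt kanamycin-resistance gene on pET-22b(+) and held in E. coli BL21(DE3). Cells were grown overnight at 37°C or 30°C on LB agar, with or without 25 μg/mL kanamycin, plus 100 μg/mL carbenicillin, 50 μM IPTG and 0.2% rhamnose, and pooled colonies were amplicon-sequenced on an Illumina HiSeq 2500. DiMSum fitness is the error-weighted combination of wild-type-normalised replicate fold changes, kanamycin versus none.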

Row | Sequence | self-splicing fitness (ln) (30 °C) | self-splicing fitness (ln) (37 °C)
1 | GAUCAGCAAUAUUACGUUUC | -2.26 ± 0.12 | -0.791 ± 0.1
2 | GAUGAGCAAUAUUACGAAAC | -3.2 ± 0.26 | -2.43 ± 0.24
3 | GAUGAGCAAUAUUACGAACA | -3.07 ± 0.47 | -1.54 ± 0.24
4 | GAUGAGCAAUAUUACGACAG | -2.31 ± 0.47 | –
5 | GAUGAGCAAUAUUACGAGUU | -2.18 ± 0.22 | -1.47 ± 0.24
6 | GAUGAGCAAUAUUACGAUAC | -3.7 ± 0.38 | -0.654 ± 0.2
7 | GAUGAGCAAUAUUACGAUCU | – | -1.86 ± 0.29
8 | GAUGAGCAAUAUUACGCGAU | -3.05 ± 0.34 | -1.57 ± 0.21
9 | GAUGAGCAAUAUUACGCGCG | -1.68 ± 0.23 | -0.518 ± 0.17
10 | GAUGAGCAAUAUUACGCGGG | -3.55 ± 0.42 | -3.59 ± 0.47
11 | GAUGAGCAAUAUUACGCUCC | -3 ± 0.3 | –
12 | GAUGAGCAAUAUUACGCUUA | -2.21 ± 0.28 | -2.33 ± 0.25
13 | GAUGAGCAAUAUUACGGAAA | – | -2.2 ± 0.31
14 | GAUGAGCAAUAUUACGGAAC | – | 0.0424 ± 0.44
15 | GAUGAGCAAUAUUACGGUAG | -2.01 ± 0.14 | -2.2 ± 0.21
16 | GAUGAGCAAUAUUACGGUUC | -4.06 ± 0.33 | -2.32 ± 0.35
17 | GAUGAGCAAUAUUACGGUUU | -2.06 ± 0.097 | -1.04 ± 0.13
18 | GAUGAGCAAUAUUACGUGUG | -2.57 ± 0.14 | -1.45 ± 0.12
19 | GAUGAGCAAUAUUACGUUGA | -3.32 ± 0.43 | -1.5 ± 0.2
20 | GAUUAGCAAUAUUACGAAAC | -2.38 ± 0.16 | -1.61 ± 0.17
21 | GAUUAGCAAUAUUACGAACA | -0.848 ± 0.21 | 0.129 ± 0.17
22 | GAUUAGCAAUAUUACGACAC | -0.38 ± 0.17 | -1.07 ± 0.17
23 | GAUUAGCAAUAUUACGACAU | -0.469 ± 0.014 | -0.0848 ± 0.033
24 | GAUUAGCAAUAUUACGACUG | -0.181 ± 0.12 | -0.313 ± 0.14
25 | GAUUAGCAAUAUUACGACUU | 0.263 ± 0.12 | -0.24 ± 0.12

Row | Sequence | self-splicing fitness (ln) (30 °C) | self-splicing fitness (ln) (37 °C)
26 | GAUUAGCAAUAUUACGCAUC | -2.32 ± 0.25 | –
27 | GAUUAGCAAUAUUACGCCAG | -2.17 ± 0.32 | -0.806 ± 0.34
28 | GAUUAGCAAUAUUACGCGCA | -0.548 ± 0.12 | 0.433 ± 0.11
29 | GAUUAGCAAUAUUACGCGCC | -1.37 ± 0.38 | -1.2 ± 0.34
30 | GAUUAGCAAUAUUACGCGUU | -2.52 ± 0.31 | -1.8 ± 0.34
31 | GAUUAGCAAUAUUACGCUGC | -3.07 ± 0.24 | -2.25 ± 0.35
32 | GAUUAGCAAUAUUACGCUUC | -3.55 ± 0.34 | -1.88 ± 0.29
33 | GAUUAGCAAUAUUACGGACA | -1.06 ± 0.13 | 0.179 ± 0.12
34 | GAUUAGCAAUAUUACGGAGG | -2.45 ± 0.18 | -1.81 ± 0.17
35 | GAUUAGCAAUAUUACGGAUG | -2.07 ± 0.16 | -0.375 ± 0.15
36 | GAUUAGCAAUAUUACGGCUG | -0.996 ± 0.067 | -0.513 ± 0.093
37 | GAUUAGCAAUAUUACGGCUU | -0.0112 ± 0.094 | -0.0247 ± 0.11
38 | GAUUAGCAAUAUUACGGGCA | -1.13 ± 0.13 | -0.685 ± 0.12
39 | GAUUAGCAAUAUUACGGGUG | -1.52 ± 0.097 | -0.58 ± 0.12
40 | GAUUAGCAAUAUUACGGGUU | -2.59 ± 0.16 | -1.14 ± 0.15
41 | GAUUAGCAAUAUUACGUACA | -1.89 ± 0.24 | -0.352 ± 0.15
42 | GAUUAGCAAUAUUACGUAGG | -3.05 ± 0.16 | -1.48 ± 0.15
43 | GAUUAGCAAUAUUACGUCAC | -2.91 ± 0.28 | -2.2 ± 0.37
44 | GAUUAGCAAUAUUACGUCCC | -0.907 ± 0.17 | -0.221 ± 0.17
45 | GAUUAGCAAUAUUACGUCGG | -2.66 ± 0.24 | -3.05 ± 0.29
46 | GAUUAGCAAUAUUACGUUCG | -1.94 ± 0.16 | -1.44 ± 0.13
47 | GCAAAGCAAUAUUACGAAAU | -2.4 ± 0.12 | -1.36 ± 0.11
48 | GCAAAGCAAUAUUACGAACA | -1.89 ± 0.14 | -1.73 ± 0.12
49 | GCAAAGCAAUAUUACGACAU | -0.736 ± 0.012 | -0.158 ± 0.032
50 | GCAAAGCAAUAUUACGACCC | -1.11 ± 0.073 | -0.0707 ± 0.1
